Measurements as given in the supplement of paper PMC9112550, “Optimization of the antimicrobial peptide Bac7 by deep mutational scanning” (BMC Biology, 2022).

tested on: Escherichia coli TOP10; test: shrunken log2 fold change of peptide-encoding DNA abundance (4.5 h post-induction vs induction); higher = less antimicrobial activity (less host growth inhibition); details: time post-induction: 4.5 h; library: site-saturation at positions 5, 18, 19, 20
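Further: peptides expressed intracellularly from a pBAD plasmid library in pooled LB shake-flask culture, induced with 0.3% L-arabinose, DNA abundance read by NGS, three biological replicates, DESeq2 with apeglm shrinkage.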

Sequence | shrunken log2 fold change
RRIRIRPPRLPRPRPRPINGPRP | -0.383
RRIRYRPPRLPRPRPRPYIEPRP | -0.469
RRIRKRPPRLPRPRPRPMYLPRP | 0.239
RRIRWRPPRLPRPRPRPSACPRP | 0.382
RRIRRRPPRLPRPRPRPPGIPRP | 0.612
RRIRRRPPRLPRPRPRPWTTPRP | 0.201
RRIRKRPPRLPRPRPRPYSYPRP | -0.0565
RRIRGRPPRLPRPRPRPDDYPRP | 0.662
RRIRTRPPRLPRPRPRPFCWPRP | -0.0403
RRIRPRPPRLPRPRPRPDHLPRP | -0.172
RRIRHRPPRLPRPRPRPSSCPRP | -0.0272
RRIRYRPPRLPRPRPRPQHNPRP | -1.13
RRIRHRPPRLPRPRPRPFYDPRP | -0.837
RRIRGRPPRLPRPRPRPRCSPRP | 0.415
RRIRKRPPRLPRPRPRPNPFPRP | 1.91
RRIRYRPPRLPRPRPRPDEYPRP | -0.0128
RRIRCRPPRLPRPRPRPTGMPRP | -0.013
RRIRDRPPRLPRPRPRPWREPRP | 0.00581
RRIRQRPPRLPRPRPRPDSWPRP | 0.0403
RRIRRRPPRLPRPRPRPPAGPRP | 0.753
RRIRQRPPRLPRPRPRPWSWPRP | -0.0208
RRIRCRPPRLPRPRPRPNSVPRP | -0.143

Sequence | shrunken log2 fold change
RRIRLRPPRLPRPRPRPDSFPRP | -0.0169
RRIRRRPPRLPRPRPRPCASPRP | 0.0214
RRIRFRPPRLPRPRPRPIMDPRP | -0.212
RRIRDRPPRLPRPRPRPCCCPRP | 0.714
RRIRDRPPRLPRPRPRPYYPPRP | -0.248
RRIRQRPPRLPRPRPRPNYLPRP | -0.134
RRIRHRPPRLPRPRPRPKFHPRP | -0.429
RRIRLRPPRLPRPRPRPCGWPRP | 0.124
RRIRTRPPRLPRPRPRPRDFPRP | 0.0849
RRIRVRPPRLPRPRPRPTQTPRP | 0.0438
RRIRTRPPRLPRPRPRPESNPRP | -0.178
RRIRERPPRLPRPRPRPQKIPRP | -0.12
RRIRIRPPRLPRPRPRPEVFPRP | -0.202
RRIRARPPRLPRPRPRPLDVPRP | -0.07
RRIRNRPPRLPRPRPRPNKGPRP | -0.134
RRIRKRPPRLPRPRPRPIGIPRP | -0.01
RRIRKRPPRLPRPRPRPIHWPRP | 0.137
RRIRYRPPRLPRPRPRPIIVPRP | -0.249
RRIRPRPPRLPRPRPRPCCSPRP | -0.556
RRIRERPPRLPRPRPRPTCAPRP | -0.162
RRIRIRPPRLPRPRPRPLLVPRP | -0.565
RRIRVRPPRLPRPRPRPNEVPRP | 0.00656

Sequence | shrunken log2 fold change
RRIRKRPPRLPRPRPRPVEWPRP | 0.12
RRIRIRPPRLPRPRPRPHCWPRP | -0.27
RRIRSRPPRLPRPRPRPEDGPRP | 0.0117
RRIRKRPPRLPRPRPRPPCTPRP | 0.193
RRIRFRPPRLPRPRPRPGGVPRP | 0.106
RRIRSRPPRLPRPRPRPGRRPRP | 0.263
RRIRNRPPRLPRPRPRPHVAPRP | -0.0498
RRIRRRPPRLPRPRPRPRYSPRP | -0.49
RRIRLRPPRLPRPRPRPEQWPRP | -0.00018
RRIRQRPPRLPRPRPRPICFPRP | -0.0372
RRIRARPPRLPRPRPRPLKHPRP | -0.0681
RRIRIRPPRLPRPRPRPQEEPRP | 0.0133
RRIRMRPPRLPRPRPRPRLNPRP | 0.305
RRIRCRPPRLPRPRPRPKGAPRP | 0.492
RRIRERPPRLPRPRPRPPAYPRP | -0.173
RRIRERPPRLPRPRPRPNEYPRP | -0.726
RRIRSRPPRLPRPRPRPSLYPRP | -0.432
RRIRDRPPRLPRPRPRPEACPRP | 0.644
RRIRLRPPRLPRPRPRPYDHPRP | -0.165
RRIRGRPPRLPRPRPRPAMHPRP | 1.03
RRIRVRPPRLPRPRPRPHANPRP | 0.25
RRIRSRPPRLPRPRPRPPAIPRP | 0.413

Sequence | shrunken log2 fold change
RRIRWRPPRLPRPRPRPHIMPRP | -0.457
RRIRWRPPRLPRPRPRPINFPRP | -0.143
RRIRARPPRLPRPRPRPKYVPRP | -0.145
RRIRSRPPRLPRPRPRPNTRPRP | -0.186
RRIRPRPPRLPRPRPRPLFIPRP | -0.459
RRIRARPPRLPRPRPRPIPAPRP | 0.333
RRIRGRPPRLPRPRPRPDYLPRP | 0.115
RRIRNRPPRLPRPRPRPMFEPRP | 0.29
RRIRCRPPRLPRPRPRPEWVPRP | 0.293
RRIRMRPPRLPRPRPRPINVPRP | -0.0528
RRIRMRPPRLPRPRPRPADQPRP | -0.0145
RRIRGRPPRLPRPRPRPGWNPRP | 0.486
RRIRKRPPRLPRPRPRPRQIPRP | 0.298
RRIRVRPPRLPRPRPRPVKQPRP | -0.0475
RRIRGRPPRLPRPRPRPSRDPRP | 0.921
RRIRFRPPRLPRPRPRPPNGPRP | -0.0591
RRIRLRPPRLPRPRPRPKYHPRP | -0.472
RRIRQRPPRLPRPRPRPDMPPRP | -0.2
RRIRLRPPRLPRPRPRPTSKPRP | -0.253
RRIRDRPPRLPRPRPRPTKVPRP | -0.274
RRIRPRPPRLPRPRPRPNKYPRP | -0.662
RRIRWRPPRLPRPRPRPHPQPRP | 0.309

Sequence | shrunken log2 fold change
RRIRRRPPRLPRPRPRPMFHPRP | -0.395
RRIRQRPPRLPRPRPRPEIFPRP | 0.127
RRIRARPPRLPRPRPRPLWEPRP | 0.745
RRIRNRPPRLPRPRPRPAHKPRP | 0.00838
RRIRKRPPRLPRPRPRPEGHPRP | 0.0594
RRIRGRPPRLPRPRPRPEPGPRP | 1.33
RRIRDRPPRLPRPRPRPPMSPRP | 0.137
RRIRIRPPRLPRPRPRPLKRPRP | -0.0843
RRIRDRPPRLPRPRPRPMDDPRP | -0.000946
RRIRMRPPRLPRPRPRPSMMPRP | 0.0163
RRIRARPPRLPRPRPRPFLAPRP | -0.122
RRIRPRPPRLPRPRPRPAEIPRP | 0.0712
RRIRWRPPRLPRPRPRPDFLPRP | -0.221
RRIRYRPPRLPRPRPRPWSTPRP | -0.458
RRIRFRPPRLPRPRPRPHCQPRP | -0.125
RRIRNRPPRLPRPRPRPHGQPRP | -0.0642
RRIRQRPPRLPRPRPRPICPPRP | 0.128
RRIRSRPPRLPRPRPRPGQPPRP | 0.214
RRIRTRPPRLPRPRPRPYQIPRP | -0.0573
RRIRWRPPRLPRPRPRPQDLPRP | 0.107
RRIRRRPPRLPRPRPRPLTCPRP | -0.12
